We go through two molecules from publication PMC11040377, “Lymphocyte‐Activation Gene 3 Facilitates Pathological Tau Neuron‐to‐Neuron Transmission” (Advanced Science, 2024).

Assay [1] has as its target T1, Tau-biotin PFF (AD-Tau-induced Tau preformed fibrils, biotin-labelled) (human, UniProt P10636-8 1-441, biotin (Sulfo-NHS-LC-Biotin)).
T1 construct: Tau, human, WT isoform T40 (2N4R), 441 amino acid residues; Fibrillar assembly of many Tau chains; concentrations are monomer equivalents; also called Tau PFF; AD-Tau-induced Tau PFF-biotin; source: E. coli BL21(DE3), purified (HiTrap SP HP); fibrillised with AD-Tau seeds from AD brains, sonicated
Briefly: ELISA; Tau-biotin PFF and human recombinant LAG3; format not described in the text shown. The settings on record: both partners purified. A general note: In an ELISA, binding on a coated surface is turned into a signal by an enzyme label.

Assay [2] deals with Tau oligomers (globular, 30% sucrose fraction), biotin-labelled (human, biotin). Description: cell surface binding assay (streptavidin-alkaline phosphatase staining); SH-SY5Y cells transfected with Lag3 or its deletion mutants; biotin-labelled ligand at different concentrations (monomer equivalent) in DMEM with 10% FBS, 2 h at RT; washed, fixed, bound biotin detected with streptavidin-AP and BCIP/NBT; intensity by ImageJ, KD by GraphPad Prism. The settings on record: one partner purified.

In the next assay the target is amyloid-β (Aβ) PFF. The assay is described as above. The conditions noted are these: one partner purified.

What is called Kd is the free concentration of one partner at which half of the binding sites on the other are occupied at equilibrium, for simple one-to-one binding.

T1 sequence (P10636 other isoform, or with tags, fused parts or gaps): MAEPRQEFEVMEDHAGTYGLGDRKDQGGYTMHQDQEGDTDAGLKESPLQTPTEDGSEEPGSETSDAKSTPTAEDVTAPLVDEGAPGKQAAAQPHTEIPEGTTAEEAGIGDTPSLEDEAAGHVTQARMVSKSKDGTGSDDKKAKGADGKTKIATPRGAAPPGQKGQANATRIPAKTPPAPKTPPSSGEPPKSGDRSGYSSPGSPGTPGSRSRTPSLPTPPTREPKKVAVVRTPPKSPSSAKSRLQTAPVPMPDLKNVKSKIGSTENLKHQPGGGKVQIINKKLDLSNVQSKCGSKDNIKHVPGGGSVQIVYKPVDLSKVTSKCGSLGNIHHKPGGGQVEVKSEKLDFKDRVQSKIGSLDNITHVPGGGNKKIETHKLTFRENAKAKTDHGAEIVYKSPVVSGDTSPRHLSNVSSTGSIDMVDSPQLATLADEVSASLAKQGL

B1: human recombinant LAG3 (receptor)
chain: LQPGAEVPVVWAQEGAPAQLPCSPTIPLQDLSLLRRAGVTWQHQPDSGPPAAAPGHPLAPGPHPAAPSSWGPRPRRYTVLSVGPGGLRSGRLPLQPRVQLDERGRQRGDFSLWLRPARRADAGEYRAAVHLRDRALSCRLRLRLGQASMTASPPGSLRASDWVILNCSFSRPDRPASVHWFRNRGQGRVPVRESPHHHLAESFLFLPQVSPMDSGPWGCILTYRDGFNVSIMYNLTVLGLEPPTPLTVYAGAGSRVGLPCRLPAGVGTRSFLTAKWTPPGGGPDLLVTGDNGDFTLRLEDVSQAQAGTYTCHIHLQEQQLNATVTLAIITVTPKSFGSPGSLGKLLCEVTPVSGQERFVWSSLDTPSQRSFSGPWLEAQEAQLLSQPWQCQLYQGERLLGAAVYFTELSSPGAQRSGRAPGALPAGHL
For B1, the dissociation constant (Kd) in assay [1] is 3 nM.

B2: Lag3 (lymphocyte-activation gene 3), on transfected SH-SY5Y cells (receptor, UniProt Q61790 24-521, looked up)
chain: GPGKELPVVWAQEGAPVHLPCSLKSPNLDPNFLRRGGVIWQHQPDSGQPTPIPALDLHQGMPSPRQPAPGRYTVLSVAPGGLRSGRQPLHPHVQLEERGLQRGDFSLWLRPALRTDAGEYHATVRLPNRALSCSLRLRVGQASMIASPSGVLKLSDWVLLNCSFSRPDRPVSVHWFQGQNRVPVYNSPRHFLAETFLLLPQVSPLDSGTWGCVLTYRDGFNVSITYNLKVLGLEPVAPLTVYAAEGSRVELPCHLPPGVGTPSLLIAKWTPPGGGPELPVAGKSGNFTLHLEAVGLAQAGTYTCSIHLQGQQLNATVTLAVITVTPKSFGLPGSRGKLLCEVTPASGKERFVWRPLNNLSRSCPGPVLEIQEARLLAERWQCQLYEGQRLLGATVYAAESSSGAHSARRISGDLKGGHLVLVLILGALSLFLLVAGAFGFHWWRKQLLLRRFSALEHGIQPFPAQRKIEELERELETEMGQEPEPEPEPQLEPEPRQL
notes: also called FL; Lag3-expressing SH-SY5Y cells; source: SH-SY5Y cells, transiently transfected (Lipofectamine 2000), on cells
B2: the dissociation constant Kd in assay [2] is 1300 nM; in the assay with amyloid-β (Aβ) PFF, 310 nM.
